Reference: patent publication US20240059797A1 (GRITSTONE BIO, published 2024)

Legend:
[1] = molecular target: HLA-A*02:01_… (HLA-PEPTIDE target G7), recombinant biotinylated complex (human, enzymatically biotinylated (BirA)); experiment: phage panning, scFv ELISA
Description: Phage library screening was carried out according to the overall screening design described above. Three to four rounds of bead-based panning were performed to identify scFv binders to each peptide-HLA complex. For each round of panning, an aliquot of starting phage was set aside for input titering and the remaining phage was depleted three times against Dynabead M-280 streptavidin beads (Life Technologies) followed by a depletion against Streptavidin beads pre-bound with 100 μmoles of pooled negative peptide-HLA complexes. For the first round of panning, 100 μmoles of peptide-HLA complex bound to streptavidin beads was incubated with depleted phage for 2 hours at room temperature with rotation. Three five-minute washes with 0.5% BSA in 1×PBST (PBS+0.05% Tween-20) followed by three five-minute washes with 0.5% BSA in 1×PBS were utilized to remove any unbound phage to the peptide-HLA complex bound beads. To elute the bound phage from the washed beads, 1 ml 0.1M TEA was added and incubated for 10 minutes at room temperature with rotation. The eluted phage was collected from the beads and neutralized with 0.5 ml 1M Tris-HCl pH 7.5. The neutralized phage was then used to infect log growth TG-1 cells (OD₆₀₀=0.5) and after an hour of infection at 37° C., cells were plated onto 2YT media with 100 μg/ml carbenicillin and 2% glucose (2YTCG) agar plates for output titer and bacterial growth for subsequent panning rounds.
96-well and/or 384-well streptavidin coated plates (Pierce) were coated with 2 μg/ml peptide-HLA complex in HLA buffer and incubated overnight at 4° C. Plates were washed three times between each step with PBST (PBS+0.05%). The antigen coated plates were blocked with 3% BSA in PBS (blocking buffer) for 1 hour at room temperature. After washing, scFv PPEs were added to the plates and incubated at room temperature for 1 hour. Following washing, mouse anti-v5 antibody (Invitrogen) in blocking buffer was added to detect scFv and incubated at room temperature for 1 hour. After washing, HRP-goat anti-mouse antibody (Jackson ImmunoResearch) was added and incubated at room temperature for 1 hour.

[2] = molecular target: T1, HLA-A*01:01_… (HLA-PEPTIDE target G2), recombinant biotinylated complex (human, enzymatically biotinylated (BirA)); experiment: BLI (ForteBio Octet HTX), biotinylated G2-pHLA captured on streptavidin SAX biosensor, bispecific in solution, 1:1 Fit
T1 construct: also called G2-pHLA
Excerpt: The biosensors were then dipped in assay buffer for a baseline. […] The biosensors were finally dipped into wells containing assay buffer to measure the dissociation rate for another 50 seconds. Referencing was completed by having a biosensor with no immobilized ligand dipped into analyte. Kinetic data was processed with Octet™ software using a 1:1 kinetic model with errors within 10%, X² below 3, and R² above 0.9.

[3] = molecular target: T1, HLA-A*01:01_… (HLA-PEPTIDE target G2), …; experiment: BLI (ForteBio Octet HTX), biotinylated G2-pHLA captured on streptavidin SAX biosensor, bispecific in solution, 1:2 Fit
[4] = molecular target: T2, HLA-A*01:01_… (G2) presented on cells (human); experiment: flow cytometry, A375 cells expressing the G2 peptide
T2 construct: whole, on cells; K562 transduced with HLA-A*01:01 and pulsed with peptide, or A375 transduced with a 10x peptide cassette; also called G2 on K562 or A375 cells
Description: Tumor cells engineered to express target peptide were harvested, washed in PBS, and stained with eBioscience Fixable Viability Dye eFluor 450 for 15 minutes at room temperature. Following another wash in PBS+1-2% FBS, cells were resuspended with the indicated molecules at varying concentrations and incubated for 1 hour at 4° C. After another wash, PE-conjugated goat anti-human IgG secondary antibody (Jackson ImmunoResearch) was added at 1:100 to 1:200 for 30 minutes at 4° C. After washing in PBS+1-2% FBS, cells were resuspended in PBS+1-2% FBS and analyzed by flow cytometry. Flow cytometric analysis was performed on the Attune NxT Flow Cytometer (ThermoFisher) using the Attune NxT Software. Data was analyzed using FlowJo.

[5] = molecular target: T1, HLA-A*01:01_… (HLA-PEPTIDE target G2), …; experiment: BLI (Octet HTX), biotinylated pHLA on SAX sensor, 1:1 model
Description: (§1) The affinity of wildtype and DSB mutants were analyzed on the ForteBio Octet HTX in 96-channel mode with biolayer interferometry (BLI) detection. […] The biosensors were then dipped in assay buffer for a baseline. […] The biosensors were finally dipped into wells containing assay buffer to measure the dissociation rate for another 50 seconds. Referencing was completed by having a biosensor with no immobilized ligand dipped into analyte. Kinetic data was processed with Octet™ software using a 1:1 kinetic model with errors within 10%, X² below 3, and R² above 0.9.

[6] = molecular target: T1, HLA-A*01:01_… (HLA-PEPTIDE target G2), …; experiment: BLI (ForteBio Octet HTX), biotinylated G2-pHLA captured on streptavidin SAX biosensor, bispecific in solution, 1:1 kinetic model
Description: as §1

[7] = molecular target: HLA-A*01:01_… (HLA-PEPTIDE target G10), recombinant biotinylated complex (human, enzymatically biotinylated (BirA)); experiment: BLI, pHLA on sensor, Fab titrated, 1:1 model
Description: Binding affinity was assessed by bio-layer interferometry (BLI) using an Octet Qke (ForteBio). Briefly, biotinylated pHLA complexes in kinetics buffer were loaded onto streptavidin sensors for 300 seconds, at concentrations which gave the optimal nm shift response (approximately 0.6 nm) for each Fab at the highest concentration used. The ligand-loaded tips were subsequently equilibrated in the kinetics buffer for 120 seconds. The ligand-loaded biosensors were then dipped for 200 seconds in the Fab solution titrated into 2-fold dilutions. […] The dissociation step in the kinetics buffer was measured for 200 seconds. Data were analyzed using the ForteBio data analysis software using a 1:1 binding model.

B1: G7(3A09) scFv (scFv, V domains shown)
VH: QVQLVQSGAEVKKPGSSVKVSCKASGDTFNTYALSWVRQAPGQGLEWMGWMNPNSGNAGYAQKFQGRVTITADESTSTAYMELSSLRSEDTAVYYCARLWFGELHYYYYYGMDVWGQGTMVTVSS
VL: not shown
- binding result [1]: binds

B2: G7(1B04) scFv (scFv, V domains shown)
VH: QVQLVQSGAEVKKPGASVKVSCKASGYTFSNYYIHWVRQAPGQGLEWMGWLNPNSGNTGYAQRFQGRVTMTRDTSTSTVYMELSSLRSEDTAVYYCARDLMTTVVTPGDYGMDVWGQGTTVTVSS
VL: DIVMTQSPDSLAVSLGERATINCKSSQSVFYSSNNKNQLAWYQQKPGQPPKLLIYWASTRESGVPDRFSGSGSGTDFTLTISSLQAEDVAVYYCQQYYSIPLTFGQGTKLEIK
- binding result [1]: binds

B3: 4-G2(1H11)-10AAL hOKT3a (bispecific antibody)
chain: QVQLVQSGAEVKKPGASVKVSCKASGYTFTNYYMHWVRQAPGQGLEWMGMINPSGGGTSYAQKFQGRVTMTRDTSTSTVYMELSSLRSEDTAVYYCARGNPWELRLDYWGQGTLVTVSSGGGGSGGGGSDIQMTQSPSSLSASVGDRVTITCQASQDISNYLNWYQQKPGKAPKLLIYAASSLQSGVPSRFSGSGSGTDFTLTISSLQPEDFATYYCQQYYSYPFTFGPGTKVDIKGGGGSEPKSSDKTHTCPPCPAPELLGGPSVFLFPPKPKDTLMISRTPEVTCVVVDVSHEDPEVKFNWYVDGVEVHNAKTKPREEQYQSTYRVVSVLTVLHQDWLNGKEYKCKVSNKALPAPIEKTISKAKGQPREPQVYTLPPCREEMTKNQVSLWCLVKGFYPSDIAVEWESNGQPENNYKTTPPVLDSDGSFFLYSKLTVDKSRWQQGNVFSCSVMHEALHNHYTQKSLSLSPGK
heavy: QVQLVQSGAEVKKPGASVKVSCKASGYTFTNYYMHWVRQAPGQGLEWMGMINPSGGGTSYAQKFQGRVTMTRDTSTSTVYMELSSLRSEDTAVYYCARGNPWELRLDYWGQGTLVTVSSGGGGSGGGGSDIQMTQSPSSLSASVGDRVTITCQASQDISNYLNWYQQKPGKAPKLLIYAASSLQSGVPSRFSGSGSGTDFTLTISSLQPEDFATYYCQQYYSYPFTFGPGTKVDIKGGGGSGGGGSQVQLVQSGAEVKKPGASVKVSCKASGYTFTRYTMHWVRQAPGQGLEWMGYINPSRGYTNYNQKFKDRVTLTTDKSSSTAYMELSSLRSEDTAVYYCARYYDDHYSLDYWGQGTLVTVSSASTKGPSVFPLAPSSKSTSGGTAALGCLVKDYFPEPVTVSWNSGALTSGVHTFPAVLQSSGLYSLSSVVTVPSSSLGTQTYICNVNHKPSNTKVDKRVEPKSCDKTHTCPPCPAPELLGGPSVFLFPPKPKDTLMISRTPEVTCVVVDVSHEDPEVKFNWYVDGVEVHNAKTKPREEQYQSTYRVVSVLTVLHQDWLNGKEYKCKVSNKALPAPIEKTISKAKGQPREPQVCTLPPSREEMTKNQVSLSCAVKGFYPSDIAVEWESNGQPENNYKTTPPVLDSDGSFFLVSKLTVDKSRWQQGNVFSCSVMHEALHNRFTQKSLSLSPGK
light: DIQMTQSPSSLSASVGDRVTITCSASSSVSYMNWYQQKPGKAPKRLIYDTSKLASGVPSRFSGSGSGTDFTLTISSLQPEDFATYYCQQWSSNPFTFGQGTKLEIKRTVAAPSVFIFPPSDEQLKSGTASVVCLLNNFYPREAKVQWKVDNALQSGNSQESVTEQDSKDSTYSLSSTLTLSKADYEKHKVYACEVTHQGLSSPVTKSFNRGEC
notes: format 4 diabody; also called G2(1H11)-hOKT3a Format 4 with shortened linkers; DAB
- Kd [2]: 6.35 nM
- koff [2]: 0.00608 s⁻¹
- kon [2]: 958000 M⁻¹ s⁻¹
- Kd [3]: 301 nM
- koff [3]: 0.0746 s⁻¹
- kon [3]: 248000 M⁻¹ s⁻¹

B4: 4-hOKT3-G2(1H11) (bispecific antibody, human IgG1, kappa, N297Q)
chain: not shown
heavy: QVQLVQSGAEVKKPGASVKVSCKASGYTFTNYYMHWVRQAPGQGLEWMGMINPSGGGTSYAQKFQGRVTMTRDTSTSTVYMELSSLRSEDTAVYYCARGNPWELRLDYWGQGTLVTVSSGGGGSGGGGSGGGGSGGGGSDIQMTQSPSSLSASVGDRVTITCQASQDISNYLNWYQQKPGKAPKLLIYAASSLQSGVPSRFSGSGSGTDFTLTISSLQPEDFATYYCQQYYSYPFTFGPGTKVDIKGGGGSGGGGSQVQLVQSGAEVKKPGASVKVSCKASGYTFTRYTMHWVRQAPGQGLEWMGYINPSRGYTNYNQKFKDRVTLTTDKSSSTAYMELSSLRSEDTAVYYCARYYDDHYSLDYWGQGTLVTVSSASTKGPSVFPLAPSSKSTSGGTAALGCLVKDYFPEPVTVSWNSGALTSGVHTFPAVLQSSGLYSLSSVVTVPSSSLGTQTYICNVNHKPSNTKVDKRVEPKSCDKTHTCPPCPAPELLGGPSVFLFPPKPKDTLMISRTPEVTCVVVDVSHEDPEVKFNWYVDGVEVHNAKTKPREEQYQSTYRVVSVLTVLHQDWLNGKEYKCKVSNKALPAPIEKTISKAKGQPREPQVCTLPPSREEMTKNQVSLSCAVKGFYPSDIAVEWESNGQPENNYKTTPPVLDSDGSFFLVSKLTVDKSRWQQGNVFSCSVMHEALHNRFTQKSLSLSPGK
light: DIQMTQSPSSLSASVGDRVTITCSASSSVSYMNWYQQKPGKAPKRLIYDTSKLASGVPSRFSGSGSGTDFTLTISSLQPEDFATYYCQQWSSNPFTFGQGTKLEIKRTVAAPSVFIFPPSDEQLKSGTASVVCLLNNFYPREAKVQWKVDNALQSGNSQESVTEQDSKDSTYSLSSTLTLSKADYEKHKVYACEVTHQGLSSPVTKSFNRGEC
notes: format 4; its Fc may differ; also called 4-G2(1H11)-hOKT3; Format 4 G2(1H11) without the DSB
- EC50 [4]: 9.8 nM
- Kd [5]: 18 nM
- Kd [2]: 30.3 nM
- koff [2]: 0.0277 s⁻¹
- kon [2]: 913000 M⁻¹ s⁻¹
- Kd [3]: 1640 nM
- koff [3]: 0.324 s⁻¹
- kon [3]: 198000 M⁻¹ s⁻¹
- koff [6]: 0.00397 s⁻¹

B5: 4-hOKT3-G2(1H11) with engineered H44/L100 disulfide bond (bispecific antibody, human IgG1, kappa, N297Q)
chain: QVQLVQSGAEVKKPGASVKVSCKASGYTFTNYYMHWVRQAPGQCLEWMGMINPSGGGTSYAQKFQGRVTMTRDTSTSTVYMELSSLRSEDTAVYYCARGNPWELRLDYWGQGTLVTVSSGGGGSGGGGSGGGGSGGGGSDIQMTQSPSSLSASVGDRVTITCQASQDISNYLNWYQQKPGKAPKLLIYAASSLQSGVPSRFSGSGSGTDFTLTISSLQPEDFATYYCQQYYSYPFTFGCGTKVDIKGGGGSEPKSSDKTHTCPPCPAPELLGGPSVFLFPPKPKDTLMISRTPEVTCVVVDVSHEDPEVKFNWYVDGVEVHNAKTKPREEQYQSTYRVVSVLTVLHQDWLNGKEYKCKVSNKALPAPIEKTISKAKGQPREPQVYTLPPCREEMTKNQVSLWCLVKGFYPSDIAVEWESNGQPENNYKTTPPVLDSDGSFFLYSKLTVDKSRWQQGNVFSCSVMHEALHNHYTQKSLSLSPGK
heavy: QVQLVQSGAEVKKPGASVKVSCKASGYTFTNYYMHWVRQAPGQCLEWMGMINPSGGGTSYAQKFQGRVTMTRDTSTSTVYMELSSLRSEDTAVYYCARGNPWELRLDYWGQGTLVTVSSGGGGSGGGGSGGGGSGGGGSDIQMTQSPSSLSASVGDRVTITCQASQDISNYLNWYQQKPGKAPKLLIYAASSLQSGVPSRFSGSGSGTDFTLTISSLQPEDFATYYCQQYYSYPFTFGCGTKVDIKGGGGSGGGGSQVQLVQSGAEVKKPGASVKVSCKASGYTFTRYTMHWVRQAPGQGLEWMGYINPSRGYTNYNQKFKDRVTLTTDKSSSTAYMELSSLRSEDTAVYYCARYYDDHYSLDYWGQGTLVTVSSASTKGPSVFPLAPSSKSTSGGTAALGCLVKDYFPEPVTVSWNSGALTSGVHTFPAVLQSSGLYSLSSVVTVPSSSLGTQTYICNVNHKPSNTKVDKRVEPKSCDKTHTCPPCPAPELLGGPSVFLFPPKPKDTLMISRTPEVTCVVVDVSHEDPEVKFNWYVDGVEVHNAKTKPREEQYQSTYRVVSVLTVLHQDWLNGKEYKCKVSNKALPAPIEKTISKAKGQPREPQVCTLPPSREEMTKNQVSLSCAVKGFYPSDIAVEWESNGQPENNYKTTPPVLDSDGSFFLVSKLTVDKSRWQQGNVFSCSVMHEALHNRFTQKSLSLSPGK
light: DIQMTQSPSSLSASVGDRVTITCSASSSVSYMNWYQQKPGKAPKRLIYDTSKLASGVPSRFSGSGSGTDFTLTISSLQPEDFATYYCQQWSSNPFTFGQGTKLEIKRTVAAPSVFIFPPSDEQLKSGTASVVCLLNNFYPREAKVQWKVDNALQSGNSQESVTEQDSKDSTYSLSSTLTLSKADYEKHKVYACEVTHQGLSSPVTKSFNRGEC
notes: also called G2(1H11)-hOKT3_DSBH44/L100 Format 4; G2 Format 4 with the DSB
- EC50 [4]: 1750 nM
- Kd [5]: 35.1 nM
- koff [6]: 0.025 s⁻¹

B6: G10(4E07) Fab (Fab, V domains shown)
VH: QVQLVQSGAEVKKPGSSVKVSCKASGYTFTGYYMHWVRQAPGQGLEWMGRISPSDGSTTYAPKFQGRVTITADESTSTAYMELSSLRSEDTAVYYCARDMGDAFDIWGQGTTVTVSS
VL: not shown
notes: Fab
- Kd [7]: 428 nM
- koff [7]: 0.111 s⁻¹
- kon [7]: 477000 M⁻¹ s⁻¹

B7: G7(1G10) scFv (scFv, V domains shown)
VH: EVQLLESGGGLVQPGGSLRLSCAASGFTFSSYAMHWVRQAPGKGLEWVSGISGSGGSTYYADSVKGRFTISRDNSKNTLYLQMNSLRAEDTAVYYCASDYGDYRGQGTLVTVSS
VL: DIQMTQSPSSLSASVGDRVTITCRASQDIRNDLGWYQQKPGKAPKLLIYAASSLQSGVPSRFSGSGSGTDFTLTISSLQPEDFATYYCQQANAFPPTFGQGTKVEIK
- binding result [1]: binds

B8: G10(1B07) Fab (Fab, V domains shown)
VH: QVQLVQSGAEVKKPGASVKVSCKASGYTFTSYYMHWVRQAPGQGLEWMGIIHPGGGTTSYAQKFQGRVTMTRDTSTSTVYMELSSLRSEDTAVYYCARDKVYGDGFDPWGQGTLVTVSS
VL: DIQMTQSPSSLSASVGDRVTITCRASQSISRWLAWYQQKPGKAPKLLIFDASRLQSGVPSRFSGSGSGTDFTLTISSLQPEDFATYYCQQAEAFPYTFGQGTKVEIK
notes: Fab
- Kd [7]: 37.5 nM
- koff [7]: 0.00615 s⁻¹
- kon [7]: 165000 M⁻¹ s⁻¹

B9: G7(1F08) scFv (scFv, V domains shown)
VH: EVQLLQSGGGLVQPGGSLRLSCAASGFTFSSSWMHWVRQAPGKGLEWVSFISTSSGYIYYADSVKGRFTISRDNSKNTLYLQMNSLRAEDTAVYYCAKDLATVGEPYYYYGMDVWGQGTTVTVSS
VL: DIQMTQSPSSLSASVGDRVTITCQASQDISNYLNWYQQKPGKAPKLLIYSASNLRSGVPSRFSGSGSGTDFTLTISSLQPEDFATYYCQQGNTFPLTFGQGTKVEIK
- binding result [1]: binds

B10: G7(1C06) scFv (scFv, V domains shown)
VH: QVQLVQSGAEVKKPGASVKVSCKASGGTFSNYGISWVRQAPGQGLEWMGIINPGGSTSYAQKFQGRVTMTRDTSTSTVYMELSSLRSEDTAVYYCARDGYDFWSGYTSDDYWGQGTLVTVSS
VL: EIVMTQSPATLSVSPGERATLSCRASQSVSSSNLAWYQQKPGQAPRLLIYGASTRATGIPARFSGSGSGTEFTLTISSLQSEDFAVYYCHHYGRSHTFGQGTKVEIK
- binding result [1]: binds
